The values below are quoted from earlier work in patent US20160114039A1, “TREATMENT OF POLYPOIDAL CHOROIDAL VASCULOPATHY” (BAYER HEALTHCARE LLC, priority 2013, published 2016).

The test system of the data set is symptomatic PCV. The following applies: sixty-one Asian patients with symptomatic PCV; primary end point assessed at month 6.

B1: ranibizumab (antibody, chains of the INN, looked up, V domains shown)
VH: EVQLVESGGGLVQPGGSLRLSCAASGYDFTHYGMNWVRQAPGKGLEWVGWINTYTGEPTYAADFKRRFTFSLDTSKSTAYLQMNSLRAEDTAVYYCAKYPYYYGTSHWYFDVWGQGTLVTVSS
VL: DIQLTQSPSSLSASVGDRVTITCSASQDISNYLNWYQQKPGKAPKVLIYFTSSLHSGVPSRFSGSGSGTDFTLTISSLQPEDFATYYCQQYSTVPWTFGQGTKVEIK
modifications: Fab
notes: anti-VEGF agent ranibizumab (Lucentis)
Take B1: the complete polyp regression was 28.6%.
